Test results as given in publication PMC2635643, “Improving the Stability of Insulin in Solutions Containing Intestinal Proteases in Vitro” (International Journal of Molecular Sciences, 2008).

Experiments:
α-chymotrypsin = assay: Degradation of insulin induced by α-chymotrypsin (remaining insulin by HPLC and PAGE); format: in vitro ADME
Procedure: (§1) HPLC was carried out according to Todo et al. with minor modifications. Analyses of remaining insulin were carried out by reserve phase HPLC with an isocratic system (Shimadzu Co., Kyoto) using the raw insulin bulk drug as the standard (28 IU/mg). The HPLC system was composed of a pump (LC-10ADvp), diode array detector (SPD-M10Avp), column oven (CTO-10ASvp), and LC workstation (CLASS-LC10). The mobile phase was a 72:28 mixture of 0.2 mol/L sodium sulphate buffer (pH 3.0) and acetonitrile at a flow rate of 1.0 mL/min. The column was a Shodex Asahipak ODP-50 6D (4.6mm × 150 mm, 5 um) (Showa Denko, Ltd., Tokyo) heated at room temperature. Ultraviolet absorption was measured at 214 nm.
(§2) PAGE was carried out according to Laemmli with minor modifications. The running gel, stacking gel and electrode buffer are without sodium dodecyl sulfate (SDS). The running gel and stacking gel contained 15% and 4.5% acrylamide, respectively. After electrophoresis, the gels were subjected to stain with Coomassie Brilliant R-250.
(§3) Insulin was dissolved in a few drops of 0.05 mol/L HCL, then 0.05 mol/L PBS (phosphate buffer, pH=7.0) was added. α-Chymotrypsin (5 mg/mL) and trypsin (12 mg/mL) solutions were prepared with Tris-HCL buffer (pH=8.0), respectively. Casein (5 g) was dissolved in 0.1 mol/L NaOH (10 mL), then was diluted to 100 mL with PBS (pH=7.0), The pH of final concentration was again measured and adjusted to pH 7.0. 5% Protamine solution was prepared with PBS (pH=7.0). Insulin solution and enzyme solutions were incubated at 37 °C for 15 min. Different treatments were administered. The final concentration of insulin in the solution was 0.5 mg/mL. The final mass ratios in the solution were as following, insulin:HP-β-CD = 1 :30; insulin:casein = 1:10; insulin:protamine = 1:10; insulin:casein or protamine:HP-β-CD = 1:10:30. Before the addition of a-chymotrypsin solution, insulin solution was vortexed at high speed for 5 s and a sample was withdrawn and added with ice-cold 0.5% TFA acid as the zero time sample. Samples were withdrawn for 15, 30, 45 and 60 min after the addition of the enzyme solution at 37 °C. The final enzyme concentrations of α-chymotrypsin and trypsin were 8 mg/L [29] and 600 mg/L [21], respectively. Then the samples were analyzed by PAGE and HPLC after adding 50 μl of ice-cold 0.5% TFA acid to terminate the reaction. Every experiment was carried out three times. The average and the standard deviation of the data were calculated.

trypsin = assay: Degradation of insulin induced by trypsin (remaining insulin by HPLC and PAGE); format: in vitro ADME
Procedure: as §1, §2, §3

[1] = UV absorption spectra of insulin in different solutions; format: physicochemical; settings: Table 1, UV absorption at 275 nm; insulin 100 μg/mL, casein 200 μg/mL, HP-β-CD 1 mg/mL (Figure 6A)
Procedure: Absorption spectra were recorded on a Shimadzu UV-2450 spectrophotometer. The absorption spectra were carried out according to Kano et al..

## Insulin
α-chymotrypsin; insulin 0.5 mg/mL, insulin:HP-β-CD = 1:30 (mass), α-chymotrypsin 8 mg/L, PBS pH 7.0, 37 °C, sampling 0-60 min, HPLC UV 214 nm, mean of n=3, P>0.05 vs insulin alone
  insulin detected (remaining) against α-chymotrypsin, treated with HP-β-CD: About 25%
α-chymotrypsin; insulin 0.5 mg/mL, insulin:casein = 1:10 (mass), α-chymotrypsin 8 mg/L, PBS pH 7.0, 37 °C, sampling 0-60 min, HPLC UV 214 nm, mean of n=3, P<0.01 vs insulin alone
  insulin remained undegraded against α-chymotrypsin, treated with casein: about 45%
α-chymotrypsin; insulin 0.5 mg/mL, insulin:casein:HP-β-CD = 1:10:30 (mass), α-chymotrypsin 8 mg/L, PBS pH 7.0, 37 °C, sampling 0-60 min, HPLC UV 214 nm, mean of n=3, P<0.001 vs insulin alone
  insulin remained undegraded against α-chymotrypsin, co-incubated with HP-β-CD and casein: About 80%
α-chymotrypsin; insulin alone 0.5 mg/mL, α-chymotrypsin 8 mg/L, PBS pH 7.0, 37 °C, after 60 min, 15 min pre-incubation, HPLC UV 214 nm and PAGE, n=3
  remaining insulin against α-chymotrypsin: most of insulin was degraded
α-chymotrypsin; insulin with casein and protamine, α-chymotrypsin, 37 °C, data not shown
  remained insulin against α-chymotrypsin in the solution containing casein and protamine: almost equal to that in the solution containing casein
trypsin; insulin 0.5 mg/mL, insulin:HP-β-CD = 1:30 (mass), trypsin 600 mg/L, PBS pH 7.0, 37 °C, 0-60 min, n=3, P>0.05 vs insulin alone
  degradation of insulin by trypsin, treated with HP-β-CD: partly inhibited
trypsin; insulin 0.5 mg/mL, insulin:protamine = 1:10 (mass), trypsin 600 mg/L, PBS pH 7.0, 37 °C, 0-60 min, n=3, P<0.05 vs insulin alone
  degradation of insulin by trypsin in the presence of protamine: significantly decreased
trypsin; insulin 0.5 mg/mL, insulin:protamine:HP-β-CD = 1:10:30 (mass), trypsin 600 mg/L, PBS pH 7.0, 37 °C, at 60 min, HPLC UV 214 nm, mean of n=3, P<0.01 vs insulin alone
  insulin detected (remaining) against trypsin, co-incubated with HP-β-CD and protamine: about 70%
trypsin; insulin alone 0.5 mg/mL, trypsin 600 mg/L, PBS pH 7.0, 37 °C, after 60 min, 15 min pre-incubation, HPLC UV 214 nm, mean of n=3
  insulin remained against trypsin: about 15%
trypsin; insulin with casein and protamine, trypsin, 37 °C, data not shown
  remaining insulin against trypsin in the solution containing casein and protamine: almost equal to that in the solution containing protamine
[1]
  ΔA275: 0.098

## Casein
[1]
  ΔA275: 0.219
